Target: C-terminally FLAG-tagged HPIV3 P protein (P-FLAG) (human parainfluenza virus type 3 (HPIV3)) (UniProt P06162)
Test: co-IP

UniProt P06162, sequence (P06162 whole entry): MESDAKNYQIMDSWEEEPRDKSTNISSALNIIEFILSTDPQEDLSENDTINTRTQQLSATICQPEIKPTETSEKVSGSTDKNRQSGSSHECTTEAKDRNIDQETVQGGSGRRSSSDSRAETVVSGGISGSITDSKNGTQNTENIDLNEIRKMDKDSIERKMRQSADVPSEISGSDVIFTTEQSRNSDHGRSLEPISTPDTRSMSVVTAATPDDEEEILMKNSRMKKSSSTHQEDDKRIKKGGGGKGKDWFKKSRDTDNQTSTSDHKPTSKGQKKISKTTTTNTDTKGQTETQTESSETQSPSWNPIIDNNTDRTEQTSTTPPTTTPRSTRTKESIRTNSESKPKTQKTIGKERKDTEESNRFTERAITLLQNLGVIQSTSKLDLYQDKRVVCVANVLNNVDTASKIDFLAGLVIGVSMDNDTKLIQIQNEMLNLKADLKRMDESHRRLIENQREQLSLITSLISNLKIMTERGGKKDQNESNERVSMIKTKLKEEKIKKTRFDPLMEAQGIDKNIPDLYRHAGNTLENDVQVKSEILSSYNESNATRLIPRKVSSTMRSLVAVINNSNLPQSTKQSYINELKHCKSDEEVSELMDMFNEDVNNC

In the case of “L N960, non-tagged (from UniProt P12577 1-960) (domain or fragment)”, the binding as percent of Lwt (phosphoimager) is reported as 26.8 % of Lwt.
